Laboratory results taken from publication PMC3201852 (Nucleic Acids Research, 2011).
Each block holds one molecule with its values, some of them ahead of it.

How the values were obtained:
Test in all cases: pull-down
[1] = biological target: GST-5MP1-7A (7 alanine substitutions in AA-box 2) (human) (UniProt Q9Y6E2)
[2] = biological target: GST-fused human eIF2β (GST-eIF2β) (human) (UniProt P20042)
[3] = biological target: human eIF2 purified from HeLa cells (human, UniProt P05198 1-315; P20042 1-333; P41091 1-472)
Sequence of human eIF2 purified from HeLa cells (human, UniProt P05198 1-315; P20042 1-333; P41091 1-472) (P05198 whole entry, chain 1 of 3): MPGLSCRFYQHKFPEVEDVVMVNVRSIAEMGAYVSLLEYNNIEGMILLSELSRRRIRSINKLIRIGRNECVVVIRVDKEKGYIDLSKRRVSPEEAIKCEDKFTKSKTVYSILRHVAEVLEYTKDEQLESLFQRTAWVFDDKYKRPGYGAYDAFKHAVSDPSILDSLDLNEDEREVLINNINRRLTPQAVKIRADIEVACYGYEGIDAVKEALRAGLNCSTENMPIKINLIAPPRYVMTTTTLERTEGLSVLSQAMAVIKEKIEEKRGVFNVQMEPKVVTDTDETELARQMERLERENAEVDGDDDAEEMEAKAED
Sequence of human eIF2 purified from HeLa cells (human, UniProt P05198 1-315; P20042 1-333; P41091 1-472) (P20042 whole entry, chain 2 of 3): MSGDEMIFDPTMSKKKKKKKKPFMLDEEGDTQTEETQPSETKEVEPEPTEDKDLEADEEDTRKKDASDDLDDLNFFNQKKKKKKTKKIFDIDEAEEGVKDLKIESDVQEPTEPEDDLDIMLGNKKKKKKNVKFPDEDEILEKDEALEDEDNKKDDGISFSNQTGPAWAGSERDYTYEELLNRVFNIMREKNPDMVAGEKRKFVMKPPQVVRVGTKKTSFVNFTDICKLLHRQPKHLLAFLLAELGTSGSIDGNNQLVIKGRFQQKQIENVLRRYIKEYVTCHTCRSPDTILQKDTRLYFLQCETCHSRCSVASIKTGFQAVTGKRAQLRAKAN
Sequence of human eIF2 purified from HeLa cells (human, UniProt P05198 1-315; P20042 1-333; P41091 1-472) (P41091 whole entry, chain 3 of 3): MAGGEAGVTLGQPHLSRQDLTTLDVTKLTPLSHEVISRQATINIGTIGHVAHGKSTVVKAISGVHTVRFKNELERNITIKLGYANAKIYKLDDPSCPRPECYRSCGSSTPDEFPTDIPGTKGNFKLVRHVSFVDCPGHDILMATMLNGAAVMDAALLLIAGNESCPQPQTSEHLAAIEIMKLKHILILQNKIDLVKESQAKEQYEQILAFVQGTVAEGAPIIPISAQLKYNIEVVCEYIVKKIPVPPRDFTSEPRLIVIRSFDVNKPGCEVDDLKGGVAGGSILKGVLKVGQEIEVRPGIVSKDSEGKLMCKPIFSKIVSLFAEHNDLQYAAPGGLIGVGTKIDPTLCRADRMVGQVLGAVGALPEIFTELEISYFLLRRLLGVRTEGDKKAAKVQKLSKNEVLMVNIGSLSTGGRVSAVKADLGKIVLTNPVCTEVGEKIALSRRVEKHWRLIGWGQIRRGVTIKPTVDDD

Sequence of GST-fused human eIF2β (GST-eIF2β) (human) (P20042 whole entry, the tested form may be a part): as the sequence (P20042 whole entry, chain 2 of 3) above

fold reduction of binding against wild-type GST-5MP1 [1]: > 2 fold
Molecule: human eIF2 purified from HeLa cells (from UniProt P05198 1-315; P20042 1-333; P41091 1-472) (complex)

fold reduction of binding against wild-type FL-5MP1 [2]: 2 fold
Molecule: FL-5MP1-7A (FLAG-tagged 5MP1 with the AA-box 2 mutation 7A) (from UniProt Q9Y6E2 1-419) (natural protein)

binding result [3]: binds
B1: GST-5MP1 fusion protein (human eIF5-mimic protein 1) (natural protein, UniProt Q9Y6E2 1-419, looked up)
chain: MNKHQKPVLTGQRFKTRKRDEKEKFEPTVFRDTLVQGLNEAGDDLEAVAKFLDSTGSRLDYRRYADTLFDILVAGSMLAPGGTRIDDGDKTKMTNHCVFSANEDHETIRNYAQVFNKLIRRYKYLEKAFEDEMKKLLLFLKAFSETEQTKLAMLSGILLGNGTLPATILTSLFTDSLVKEGIAASFAVKLFKAWMAEKDANSVTSSLRKANLDKRLLELFPVNRQSVDHFAKYFTDAGLKELSDFLRVQQSLGTRKELQKELQERLSQECPIKEVVLYVKEEMKRNDLPETAVIGLLWTCIMNAVEWNKKEELVAEQALKHLKQYAPLLAVFSSQGQSELILLQKVQEYCYDNIHFMKAFQKIVVLFYKADVLSEEAILKWYKEAHVAKGKSVFLDQMKKFVEWLQNAEEESESEGEEN
